# Test results published in US20260116966A1 (KEYMED BIOSCIENCES CHENGDU, published 2026).
# Substitutions are numbered along the chain they refer to.
# T1: Cynomolgus GPRC5D (Cynomolgus, UniProt Q9NZD1 1-343 (human entry))
# T1 construct: Full length, on stably transfected cells (HEK293-cyGPRC5D, CHO-cyGPRC5D); also called cyGPRC5D
# T1 chain: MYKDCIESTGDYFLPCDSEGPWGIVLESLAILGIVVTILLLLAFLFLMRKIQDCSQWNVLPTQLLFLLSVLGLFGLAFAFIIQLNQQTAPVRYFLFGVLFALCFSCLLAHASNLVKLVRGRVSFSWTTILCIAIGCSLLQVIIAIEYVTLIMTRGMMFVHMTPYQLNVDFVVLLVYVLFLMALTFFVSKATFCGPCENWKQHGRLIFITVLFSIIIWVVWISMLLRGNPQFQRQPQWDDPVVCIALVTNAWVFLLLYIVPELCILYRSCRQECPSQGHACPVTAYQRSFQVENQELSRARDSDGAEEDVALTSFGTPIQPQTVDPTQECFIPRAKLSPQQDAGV
# T2: human BCMA on HEK293-hBCMA cells (human, UniProt Q02223 1-184)
# T2 sequence (looked up): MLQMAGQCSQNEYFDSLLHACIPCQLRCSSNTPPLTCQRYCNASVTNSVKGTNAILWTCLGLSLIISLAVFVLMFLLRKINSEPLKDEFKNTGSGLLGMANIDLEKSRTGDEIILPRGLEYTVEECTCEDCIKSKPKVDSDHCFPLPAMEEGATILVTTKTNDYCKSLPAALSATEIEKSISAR
# T3: biotinylated BCMA recombinant antigen (Homo sapiens (Human), UniProt Q02223 1-54, Biotinylated; site and chemistry not stated. The letters do not carry the biotin.)
# T3 sequence: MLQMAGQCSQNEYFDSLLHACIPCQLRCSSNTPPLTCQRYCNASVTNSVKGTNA
# B1: 2F1 × CD3 H4K5 GPRC5D×CD3 κλ bispecific antibody variant (bispecific antibody, human IgG4 S228P, kappa, lambda)
# heavy 1: QVQLVQSGAEVKKPGSSVKVSCKASGYSFTGYTMNWVREAPGQGLEWMGLINPYNGGTRYNQKFQGRVTITADESTSTAYMELSSLRSEDTAVYYCARWALRYGMDYWGQGTLVTVSSASTKGPSVFPLAPCSRSTSESTAALGCLVKDYFPEPVTVSWNSGALTSGVHTFPAVLQSSGLYSLSSVVTVPSSSLGTKTYTCNVDHKPSNTKVDKRVESKYGPPCPPCPAPEFEGGPSVFLFPPKPKDTLMISRTPEVTCVVVDVSQEDPEVQFNWYVDGVEVHNAKTKPREEQFNSTYRVVSVLTVLHQDWLNGKEYKCKVSNKGLASSIEKTISKAKGQPREPQVCTLPPSQEEMTKNQVSLSCAVKGFYPSDIAVEWESNGQPENNYKTTPPVLDSDGSFFLVSKLTVDKSRWQEGNVFSCSVMHEALHNHYTQKSLSLSLGK
# light 1: DIQMTQSPSSLSASVGDRVTITCQASQNVGTNVAWYQKKPGQAPKALIYSASYLNSGVPSRFSGSGSGTDFTFTISSLQPEDIATYFCQQYNSYLLTFGGGTKVEIKRTVAAPSVFIFPPSDEQLKSGTASVVCLLNNFYPREAKVQWKVDNALQSGNSQESVTEQDSKDSTYSLSSTLTLSKADYEKHKVYACEVTHQGLSSPVTKSFNRGEC
# heavy 2: EVQLVESGGGLVQPGGSLRLSCAASGFTFNTYAMNWVRKAPGKGLEWVGRIRSKYNNYATYYADSVKDRFTISRDDSKNSLYLQMNSLKTEDTAVYYCVRHGNFGNSYVSWFAYWGQGTLVTVSSASTKGPSVFPLAPCSRSTSESTAALGCLVKDYFPEPVTVSWNSGALTSGVHTFPAVLQSSGLYSLSSVVTVPSSSLGTKTYTCNVDHKPSNTKVDKRVESKYGPPCPPCPAPEFEGGPSVFLFPPKPKDTLMISRTPEVTCVVVDVSQEDPEVQFNWYVDGVEVHNAKTKPREEQFNSTYRVVSVLTVLHQDWLNGKEYKCKVSNKGLASSIEKTISKAKGQPREPQVYTLPPCQEEMTKNQVSLWCLVKGFYPSDIAVEWESNGQPENNYKTTPPVLDSDGSFFLYSKLTVDKSRWQEGNVFSCSVMHEALHNHYTQKSLSLSLGK
# light 2: QAVVTQEPSLTVSPGGTVTLTCRSSTGAVTTSNYANWVQEKPGQAPRGLIGGTNKRAPWTPARFSGSLLGGKAALTITGAQAEDEAEYYCVLWYSNLWVFGGGTKLTVLGQPKAAPSVTLFPPSSEELQANKATLVCLISDFYPGAVTVAWKADSSPVKAGVETTTPSKQSNNKYAASSYLSLTPEQWKSHRSYSCQVTHEGSTVEKTVAPTECS
# notes: also called h2F1 H4K5
# B2: 2F1 × CD3 H4K7 GPRC5D×CD3 κλ bispecific antibody variant (bispecific antibody, human IgG4 S228P, kappa, lambda)
# heavy 1: B1 heavy 1
# light 1: B1 light 1 with L54R
# heavy 2: B1 heavy 2
# light 2: B1 light 2
# notes: also called h2F1 H4K7
# B3: GPRC5D × BCMA × CD3 triTCE-v2 trispecific antibody (other)
# light 1: DIVLTQSPASLAVSPGQRATITCRASKSVSTSGYSYMHWYQKKPGQPPKLLIYLASNLESGVPARFSGSGSGTDFTLTINPVEAEDTANYYCQHSRELPWTFGQGTKVEIKRTVAAPSVFIFPPSDEQLKSGTASVVCLLNNFYPREAKVQWKVDNALQSGNSQESVTEQDSKDSTYSLSSTLTLSKADYEKHKVYACEVTHQGLSSPVTKSFNRGEC
# heavy 1: QVQLVQSGAEVKKPGSSVKVSCKASGYSFTGYTMNWVRQAPGQCLEWMGLINPYNGGTRYNQKFQGRVTITADESTSTAYMELSSLRSEDTAVYYCARWALRYGMDYWGQGTLVTVSSGGGGSGGGGSGGGGSDIQMTQSPSSLSASVGDRVTITCQASQNVGTNVAWYQQKPGQAPKALIYSASYLNSGVPSRFSGSGSGTDFTFTISSLQPEDIATYFCQQYNSYLLTFGCGTKVEIKGGGGSGGGGSGGGGSQVQLVQSGSELKKPGASVKVSCKASGYIFTNFGMNWVREAPGQGLEWMGWINTYTGEQIYADGFTGRFVFSLDTSVSTAYLQISSLKAEDTAVYFCARGEIYYGYDVGFVYWGQGTLVTVSSASTKGPSVFPLAPCSRSTSESTAALGCLVKDYFPEPVTVSWNSGALTSGVHTFPAVLQSSGLYSLSSVVTVPSSSLGTKTYTCNVDHKPSNTKVDKRVESKYGPPCPPCPAPEFEGGPSVFLFPPKPKDTLMISRTPEVTCVVVDVSQEDPEVQFNWYVDGVEVHNAKTKPREEQFNSTYRVVSVLTVLHQDWLNGKEYKCKVSNKGLASSIEKTISKAKGQPREPQVCTLPPSQEEMTKNQVSLSCAVKGFYPSDIAVEWESNGQPENNYKTTPPVLDSDGSFFLVSKLTVDKSRWQEGNVFSCSVMHEALHNHYTQKSLSLSLGK
# light 2: B1 light 2
# heavy 2: B1 heavy 2
# notes: Trispecific antibody: GPRC5D scFv fused to the N-terminus of the heavy chain of the BCMA arm
# B4: BCMA × CD3 κλ005 bispecific antibody (bispecific antibody, human IgG4 S228P, kappa, lambda)
# heavy 1: QVQLVQSGSELKKPGASVKVSCKASGYIFTNFGMNWVREAPGQGLEWMGWINTYTGEQIYADGFTGRFVFSLDTSVSTAYLQISSLKAEDTAVYFCARGEIYYGYDVGFVYWGQGTLVTVSS
# light 1: B3 light 1
# heavy 2: B1 heavy 2
# light 2: B1 light 2
# notes: they are not tied to the name κλ005 in one sentence; also called BCMA×CD3 bispecific antibody
# Assays:
# human GPRC5D [1] = target: T4, human GPRC5D (human, UniProt Q9NZD1 1-345); test: cell-based or functional assay
# [2] = target: T5, CD3 receptor on the surface of Jurkat cells (human, UniProt P07766 23-207); test: cell-based or functional assay
# human GPRC5D [3] = target: T4, human GPRC5D; test: cell-based or functional assay; remark: listed apart in the source
# human GPRC5D [4] = target: T4, human GPRC5D; test: flow cytometry, MM.1R cells
# Protocol: The cell suspension of MM.1R cells in logarithmic growth phase was adjusted to a concentration of 5×10⁵ cells/mL, and 100 μL per well was added to a 96-well U-shaped plate, and centrifuged at 300 g for 5 min. The supernatant was discarded. […] The primary antibody was washed away, and 50 μL/well Alexa Fluro647 labeled goat anti-human IgG FC (1:300 dilution) was added, and incubated on ice for 20 min. After washing once, 50 μL/well of PI was added, incubated for 5 min, and detected by flow cytometry.
# [5] = target: T5, CD3 receptor on the surface of Jurkat …; test: flow cytometry, Jurkat cells
# Protocol: The cell concentration was adjusted with 4% calf serum to 5×10⁵ cells/mL. 100 μL per well was added to a 96-well U-shaped plate, and centrifuged at 300 g. The supernatant was removed. […] The secondary antibody 50 μL/well of Alexa Fluro647 labeled goat anti-human IgG Fc (1:300 dilution) was added, and incubated on ice for 20 min. After washing once, 50 μL/well of PI was added, incubated for 5 min, and detected by flow cytometry.
# human GPRC5D [6] = target: T4, human GPRC5D; test: flow cytometry, HEK293-hGPRC5D cells
# Protocol: (§1) HEK293-hGPRC5D and HEK293-cyGPRC5D stably transfected cells in logarithmic growth phase were respectively adjusted to a cell density of 5×10⁵ cells/mL. Then, 100 μl/well of the cell suspension was added to a 96-well U-shaped plate, and centrifuged at 300 g for 5 min. The supernatant was discarded. […] The secondary antibody 50 μL/well of Alexa Fluro647 labeled goat anti-human IgG Fe (1:300 dilution) was added, and incubated on ice for 20 min. After washing once, 50 μL/well of PI solution (1:300) was added, incubated for 5 min, and detected by flow cytometry.
# human GPRC5D [7] = target: T4, human GPRC5D; test: flow cytometry, HEK293-hGPRC5D cells; remark: listed apart in the source
# Protocol: Cell suspensions of HEK293-hGPRC5D and HEK293-hBCMA stably transfected cells in logarithmic growth phase were adjusted to 5×10⁵ cells/ml. Then, 100 μl/well of the cell suspension was added to a 96-well U-shaped plate, and centrifuged at 300 g for 5 min. The supernatant was discarded. 100 μL per well of serially diluted antibody was added, and incubated at 4° C. for 60 min. The secondary antibody 50 μL/well of Alexa Fluro647 labeled goat anti-human IgG Fc (1:300 dilution) was added, and incubated on ice for 20 min. After washing once, 50 μL/well of PI solution was added, incubated for 5 min, and detected by flow cytometry.
# Cynomolgus GPRC5D [8] = target: T1, Cynomolgus GPRC5D; test: flow cytometry, HEK293-cyGPRC5D cells
# Protocol: as §1
# Cynomolgus GPRC5D [9] = target: T1, Cynomolgus GPRC5D; test: flow cytometry, HEK293-cyGPRC5D cells against HEK293-hGPRC5D cells
# Protocol: as §1
# [10] = target: T5, CD3 receptor on the surface of Jurkat …; test: flow cytometry on Jurkat cells
# Protocol: Jurkat cells in logarithmic growth phase were added with 200 μg/mL mouse IgG, and allowed to stand in an ice bath for 30 min. The cells were adjusted with 4% calf serum to 5×10⁵ cells/mL. 100 μL per well was added to a 96-well U-shaped plate, and centrifuged at 300 g. The supernatant was removed. 100 μL per well of serially diluted antibody was added, and incubated at 4° C. for 60 min. The secondary antibody 50 μL/well of Alexa Fluro647 labeled goat anti-human IgG Fc (1:300 dilution) was added, and incubated on ice for 20 min. After washing once, 50 μL/well of PI was added, incubated for 5 min, and detected by flow cytometry.
# [11] = target: T2, human BCMA on HEK293-hBCMA cells; test: cell-based or functional assay
# [12] = target: T2, human BCMA on HEK293-hBCMA cells; test: flow cytometry, HEK293-hBCMA cells
# [13] = target: T3, biotinylated BCMA recombinant antigen; test: BLI, biotinylated antigen on SA probe, antibody as analyte
# Description: The affinity of GPRC5D×BCMA×CD3 triTCE antibody to BCMA and CD3 recombinant antigens was detected by Bio-layer interferometry (BLI/Gator prime). Biotinylated BCMA antigen or CD3e antigen was captured by SA probe, and then the signals of binding to and dissociation from the probe were detected by using the triTCE antibody as an analyte.
# [14] = target: T6, biotinylated CD3 recombinant antigen (CD3εγ) (Homo sapiens (Human), UniProt P07766 23-126; P09693 23-116, Biotinylated; site and chemistry not stated. The letters do not carry the biotin.); test: as above
# T6 construct: also called CD3e antigen; copies: 1 + 1
# T6 sequence (P07766 23-126 limits assumed, chain 1 of 2): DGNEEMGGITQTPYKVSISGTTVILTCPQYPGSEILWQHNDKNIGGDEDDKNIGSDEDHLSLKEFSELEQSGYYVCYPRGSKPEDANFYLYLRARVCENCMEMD
# T6 sequence (P09693 23-116 limits assumed, chain 2 of 2): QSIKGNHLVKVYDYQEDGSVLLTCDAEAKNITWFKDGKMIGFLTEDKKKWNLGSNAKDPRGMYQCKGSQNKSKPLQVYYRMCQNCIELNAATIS
# T4 sequence (Q9NZD1 whole entry): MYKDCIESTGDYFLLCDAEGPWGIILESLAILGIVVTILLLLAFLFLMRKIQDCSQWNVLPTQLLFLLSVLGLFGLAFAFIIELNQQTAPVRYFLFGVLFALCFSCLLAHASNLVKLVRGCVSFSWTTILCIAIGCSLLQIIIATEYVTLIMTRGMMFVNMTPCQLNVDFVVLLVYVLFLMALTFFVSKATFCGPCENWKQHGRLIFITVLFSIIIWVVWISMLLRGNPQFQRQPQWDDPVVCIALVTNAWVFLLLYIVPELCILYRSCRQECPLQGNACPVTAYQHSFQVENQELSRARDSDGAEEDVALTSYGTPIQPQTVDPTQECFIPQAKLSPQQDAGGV
# T5 sequence (P07766 23-207): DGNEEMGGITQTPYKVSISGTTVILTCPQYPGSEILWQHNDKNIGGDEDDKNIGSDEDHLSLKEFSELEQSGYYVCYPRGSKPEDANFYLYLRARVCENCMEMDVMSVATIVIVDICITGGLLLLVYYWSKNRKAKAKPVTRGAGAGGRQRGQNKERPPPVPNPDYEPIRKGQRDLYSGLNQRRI
Binder,"TDCC, EC50 (nM), MM.1R (human GPRC5D [1])","Jurkat-NFAT-luc, EC50 [2]","TDCC EC50 (nM), HEK293-hGPRC5D (human GPRC5D [3])","TDCC EC50 (nM), MM.1S (human GPRC5D [3])","TDCC EC50 (nM), NCI-H929 (human GPRC5D [3])",EC50 (human GPRC5D [4]),EC50 [5],EC50 (human GPRC5D [6]),EC50 (human GPRC5D [7]),EC50 (Cynomolgus GPRC5D [8]),"fold difference of affinity, Cynomolgus GPRC5D against human GPRC5D (Cynomolgus GPRC5D [9])",binding result [10],"TDCC EC50 (nM), HEK293-hBCMA [11]",EC50 [12],Kd [13],Kd [14]
B1,0.008 nM,0.662 nM,0.014 nM,0.017 nM,0.036 nM,15.7 nM,1.9 nM,2.8 nM,8.4 nM,12.8 nM,< 5 fold,,,,,
B2,0.009 nM,0.774 nM,,,,10.2 nM,7.2 nM,2.3 nM,,6.6 nM,< 5 fold,,,,,
B3,,,0.045 nM,,,,,,7.9 nM,,,binds,,,,
B4,,,,,,,,,,,,,0.015 nM,1.9 nM,1.1 nM,45.4 nM
